Measured values published in publication PMC4135234.
Like-named read-outs stand apart in the source and are kept apart here.

T1: GST-FLAG-LIN28A (human, UniProt Q9H9Z2 1-209)
T1 sequence: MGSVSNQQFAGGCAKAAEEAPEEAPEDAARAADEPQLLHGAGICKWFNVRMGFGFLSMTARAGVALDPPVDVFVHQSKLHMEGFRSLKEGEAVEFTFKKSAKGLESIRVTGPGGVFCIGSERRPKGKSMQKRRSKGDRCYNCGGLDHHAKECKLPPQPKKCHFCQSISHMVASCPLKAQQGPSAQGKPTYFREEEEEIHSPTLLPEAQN


How the values were obtained:
[1] = target: GST-FLAG-p53 (human, UniProt P04637 1-393); test: fluorescence polarization
[2] = target: T2, GST-FLAG-MSI2 (human, UniProt Q96DH6 1-328); test: competition
[3] = target: GST-FLAG-MSI1 (human, UniProt O43347 1-362); test: competition
[4] = target: T2, GST-FLAG-MSI2; test: competition; remark: listed apart in the source
[5] = target: T1, GST-FLAG-LIN28A; test: competition

T2 sequence (Q96DH6 whole entry): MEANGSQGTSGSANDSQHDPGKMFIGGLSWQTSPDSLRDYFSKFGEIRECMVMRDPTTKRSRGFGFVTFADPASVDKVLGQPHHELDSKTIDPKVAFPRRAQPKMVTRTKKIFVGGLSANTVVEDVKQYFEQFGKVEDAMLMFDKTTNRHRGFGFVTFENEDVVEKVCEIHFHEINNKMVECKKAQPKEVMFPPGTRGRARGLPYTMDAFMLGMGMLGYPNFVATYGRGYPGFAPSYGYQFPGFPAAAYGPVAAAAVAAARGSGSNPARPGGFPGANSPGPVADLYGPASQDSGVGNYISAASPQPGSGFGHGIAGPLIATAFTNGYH
GST-FLAG-MSI1, sequence (O43347 whole entry): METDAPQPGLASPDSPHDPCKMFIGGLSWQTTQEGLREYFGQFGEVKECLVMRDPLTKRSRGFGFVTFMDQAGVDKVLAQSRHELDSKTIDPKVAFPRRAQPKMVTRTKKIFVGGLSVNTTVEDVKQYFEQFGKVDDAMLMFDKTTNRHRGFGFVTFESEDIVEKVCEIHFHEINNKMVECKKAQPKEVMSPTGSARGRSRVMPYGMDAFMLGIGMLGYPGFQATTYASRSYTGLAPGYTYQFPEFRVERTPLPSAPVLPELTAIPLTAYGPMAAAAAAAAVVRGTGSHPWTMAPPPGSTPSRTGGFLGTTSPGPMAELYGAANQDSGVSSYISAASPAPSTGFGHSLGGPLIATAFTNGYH
GST-FLAG-p53, sequence (P04637 whole entry): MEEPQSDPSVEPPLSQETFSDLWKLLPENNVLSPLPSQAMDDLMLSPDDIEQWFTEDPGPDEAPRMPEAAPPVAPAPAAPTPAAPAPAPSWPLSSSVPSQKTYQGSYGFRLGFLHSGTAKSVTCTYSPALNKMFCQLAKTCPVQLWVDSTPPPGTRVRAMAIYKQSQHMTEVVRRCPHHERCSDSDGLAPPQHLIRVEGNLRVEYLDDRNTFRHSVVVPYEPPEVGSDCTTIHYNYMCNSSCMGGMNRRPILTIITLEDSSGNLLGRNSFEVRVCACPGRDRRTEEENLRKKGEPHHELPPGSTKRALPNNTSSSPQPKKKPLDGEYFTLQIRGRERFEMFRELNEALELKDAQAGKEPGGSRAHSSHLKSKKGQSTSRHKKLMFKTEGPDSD

| Binder | binding result [1] | IC50 [2] [nM] | IC50 [3] [nM] | IC50 [4] [nM] | IC50 [5] [nM] |
| --- | --- | --- | --- | --- | --- |
| GUAGUAGU (ssRNA, 5' C9 spacer) [MSI FP oligo (Cy3-C9-Oligo #5)] | no binding |  |  |  |  |
| GUAGUAGU (ssRNA) [MSI Oligo #5 (unlabeled MSI FP oligo)] |  | 1300 ± 200 | 5600 | 4600 | 500 |
